Patent US12616740B2, “Methods of using a GIP/GLP1 co-agonist for therapy” (ELI LILLY AND COMPANY, priority 2018, dated 2026)

Legend:
[1] = NCT03131687: nausea, vomiting and diarrhea, new events per interval; format: in vivo, human; settings: LY15 mg (tirzepatide 5 mg weeks 0 and 1; 10 mg weeks 2 to 5; then 15 mg once weekly), N = 53
Description: (§1) Clinical Study (NCT03131687) Supporting Maintenance Dose Embodiments A 6-month (26-week) Phase 2 double-blind clinical study is designed to evaluate the safety, efficacy, and PK/PD of 4 dose levels (1 mg, 5 mg, 10 mg and 15 mg respectively) of tirzepatide once weekly by subcutaneous injection compared with dulaglutide 1.5 mg. once weekly (QW) and placebo QW in patients with T2DM who have inadequate glycemic control with diet and exercise with or without a stable dose of metformin. Tirzepatide dose is up-titrated to the maintenance dose using the following weekly dose increments:
(§2) The study also has a 4-week follow up period. In addition to safety and efficacy for treating T2DM, efficacy endpoints include the effect of tirzepatide on HbA1c, FBG, body weight, lipids, and waist circumference compared with placebo and with dulaglutide 1.5 mg. The study also evaluates the effect of tirzepatide on GI tolerability, hypoglycemia, hypersensitivity reactions, and pancreatic safety, as well as the development of treatment-emergent anti-drug antibodies. Model-based dose response analyses are performed to predict potential for significant HbA1c lowering and weight loss in longer studies. Statistical Analyses: Efficacy: The primary efficacy outcome of HbA1c change from baseline to the 26-week endpoint is analyzed using a Bayesian dose-response model. Analyses are performed on the intention to treat population (mITT) analysis set. Supportive analysis of the primary efficacy outcome for the mITT dataset are the model for post-baseline measures (MMRM) with body mass index (BMI) (<30 kg/m^2, ≥30 kg/m^2), metformin use, treatment, visit, and treatment-by-visit interaction as fixed effects, baseline HbA1c as a covariate, and patient as a random effect. The mean weight change from baseline at 12 and 26 weeks, along with the mean change from baseline of HbA1c at 12 weeks, is analyzed using similar dose-response models as the primary analyses. The percentages of patients with ≥5% or ≥10% body weight loss, reaching the HbA1c target of ≤6.5% or ≤7.0% at 26 weeks, or requiring rescue therapy are analyzed using logistic regression with fixed effects of treatment and strata, and baseline as a covariate. The changes from baseline in FBG (fasting blood glucose), SMBG (self-monitored blood glucose) levels, waist circumference, and mean percentage change in lipids from baseline to 12 and 26 weeks are analyzed using a similar MMRM to the one used for the primary analyses. Table Abbreviations: Dula 1.5 mg=dulaglutide 1.5 mg once weekly; LY means tirzepatide, and LY 1 mg=tirzepatide 1 mg once weekly; LY 5 mg=5 mg once weekly; LY 10 mg=escalation dose group tirzepatide once weekly with highest dose of 10 mg; LY 15 mg=escalation dose group of tirzepatide once weekly with highest dose 15 mg; LOCF=last observation-carried-forward; N=number of patients; pbo=placebo; Week 26=mITT on-treatment data at Week 26 excluding data after study drug discontinuation or rescue drug initiation; mITT=modified intent-to-treat; SD=standard deviation. For Table 4, n=number of patients in the population with baseline and post-baseline value at the specified time point. For Table 6, LY10 mg=escalation dose group tirzepatide, once weekly with highest dose of 10 mg; escalation dose: (5 mg weeks 0 and 1), LY15 mg=escalation dose group tirzepatide, once weekly with highest dose of 15 mg; escalation dose: (5 mg weeks 0 and 1; 10 mg weeks 2 to 5); N=number of patients in specified group, m=number of patients who experienced new event during interval, FolUp=follow up, T/Wk=Time range, (week) and %=means percent patients spending at least some time in treatment group who experienced new event during interval. For Table 7, n is the number of patients with events meeting the criteria; N is number of patients in the population; % is percent of patients in treatment group experiencing the event.

[2] = NCT03131687: weight loss at Week 26; format: in vivo, human
Description: as §1, §2

[3] = LY 1 mg = tirzepatide 1 mg once weekly, LOCF
[4] = LY 1 mg = tirzepatide 1 mg once weekly, second line, analysis set not given (not LOCF)
[5] = LY 5 mg = tirzepatide 5 mg once weekly, LOCF
[6] = LY 5 mg = tirzepatide 5 mg once weekly, second line, analysis set not given (not LOCF)
[7] = LY 10 mg = tirzepatide once weekly, highest dose 10 mg, LOCF
[8] = LY 10 mg = tirzepatide once weekly, highest dose 10 mg, second line, analysis set not given (not LOCF)
[9] = LY 15 mg = tirzepatide once weekly, highest dose 15 mg, LOCF
[10] = LY 15 mg = tirzepatide once weekly, highest dose 15 mg, second line, analysis set not given (not LOCF)

Question: Which results are given for tirzepatide [LY]?
Answer: Nausea Vomiting and Diarrhea: % patients who experienced new event during interval ([1]; T/Wk 4): 5.9%; Nausea Vomiting and Diarrhea: m, number of patients who experienced new event during interval ([1]; T/Wk 4): 3; Nausea Vomiting and Diarrhea: % patients who experienced new event during interval ([1]; T/Wk 5): 2.0%; Nausea Vomiting and Diarrhea: m, number of patients who experienced new event during interval ([1]; T/Wk 5): 1; Nausea Vomiting and Diarrhea: % patients who experienced new event during interval ([1]; T/Wk 6): 3.9%; Nausea Vomiting and Diarrhea: m, number of patients who experienced new event during interval ([1]; T/Wk 6): 2; Nausea Vomiting and Diarrhea: % patients who experienced new event during interval ([1]; T/Wk 7): 5.9%; Nausea Vomiting and Diarrhea: m, number of patients who experienced new event during interval ([1]; T/Wk 7): 3; Nausea Vomiting and Diarrhea: % patients who experienced new event during interval ([1]; T/Wk 8): 4.0%; Nausea Vomiting and Diarrhea: m, number of patients who experienced new event during interval ([1]; T/Wk 8): 2; Nausea Vomiting and Diarrhea: % patients who experienced new event during interval ([1]; T/Wk 9): 0.0%; Nausea Vomiting and Diarrhea: m, number of patients who experienced new event during interval ([1]; T/Wk 9): 0; Nausea Vomiting and Diarrhea: % patients who experienced new event during interval ([1]; T/Wk 10): 0.0%; Nausea Vomiting and Diarrhea: m, number of patients who experienced new event during interval ([1]; T/Wk 10): 0; Nausea Vomiting and Diarrhea: % patients who experienced new event during interval ([1]; T/Wk 11): 2.0%; Nausea Vomiting and Diarrhea: m, number of patients who experienced new event during interval ([1]; T/Wk 11): 1; Nausea Vomiting and Diarrhea: % patients who experienced new event during interval ([1]; T/Wk 12): 2.1%; Nausea Vomiting and Diarrhea: m, number of patients who experienced new event during interval ([1]; T/Wk 12): 1; Nausea Vomiting and Diarrhea: % patients who experienced new event during interval ([1]; T/Wk >12 < 16): 2.1%; Nausea Vomiting and Diarrhea: m, number of patients who experienced new event during interval ([1]; T/Wk >12 < 16): 1; Nausea Vomiting and Diarrhea: % patients who experienced new event during interval ([1]; T/Wk >16 ≤ 20): 2.1%; Nausea Vomiting and Diarrhea: m, number of patients who experienced new event during interval ([1]; T/Wk >16 ≤ 20): 1; Nausea Vomiting and Diarrhea: % patients who experienced new event during interval ([1]; T/Wk >20): 2.1%; Nausea Vomiting and Diarrhea: m, number of patients who experienced new event during interval ([1]; T/Wk >20): 1; body weight change from baseline (in words) ([2]; 5 mg, 10 mg, and 15 mg doses of tirzepatide, significantly different from placebo and dulaglutide 1.5 mg): significantly decrease body weight from baseline; % of Patients Achieving Weight loss ≥10% [2, 3]: 5.8%; odds ratio vs. placebo, Weight loss ≥10% [2, 3]: 7.1; % of Patients Achieving Weight loss ≥10% [2, 4]: 6.8%; % of Patients Achieving Weight loss ≥15% [2, 4]: 0%; odds ratio vs. placebo, Weight loss ≥10% [2, 4]: 6.7; % of Patients Achieving Weight loss ≥10% [2, 5]: 16.4%; odds ratio vs. placebo, Weight loss ≥10% [2, 5]: 20.8; % of Patients Achieving Weight loss ≥10% [2, 6]: 16.7%; % of Patients Achieving Weight loss ≥15% [2, 6]: 6.3%; odds ratio vs. placebo, Weight loss ≥10% [2, 6]: 17.2; % of Patients Achieving Weight loss ≥10% [2, 7]: 39.2%; odds ratio vs. placebo, Weight loss ≥10% [2, 7]: 67.6; % of Patients Achieving Weight loss ≥10% [2, 8]: 45.5%; % of Patients Achieving Weight loss ≥15% [2, 8]: 25.0%; odds ratio vs. placebo, Weight loss ≥10% [2, 8]: 71.7; % of Patients Achieving Weight loss ≥10% [2, 9]: 37.7%; odds ratio vs. placebo, Weight loss ≥10% [2, 9]: 66.2; % of Patients Achieving Weight loss ≥10% [2, 10]: 54.3%; % of Patients Achieving Weight loss ≥15% [2, 10]: 34.3%; odds ratio vs. placebo, Weight loss ≥10% [2, 10]: 109.2
